Test results: patent US20060233822A1 (YANG SHENG TANG, published 2006)
Residue numbers refer to the chain shown, from its start.

Experiments:
[1] = target: T1, NE2 mutant 602AE (hepatitis E virus, UniProt P29326 394-601); experiment: Western blot of NE2 mutant proteins with monoclonal antibody 16D7
T1 construct: position counted on HEV ORF2
T1 chain: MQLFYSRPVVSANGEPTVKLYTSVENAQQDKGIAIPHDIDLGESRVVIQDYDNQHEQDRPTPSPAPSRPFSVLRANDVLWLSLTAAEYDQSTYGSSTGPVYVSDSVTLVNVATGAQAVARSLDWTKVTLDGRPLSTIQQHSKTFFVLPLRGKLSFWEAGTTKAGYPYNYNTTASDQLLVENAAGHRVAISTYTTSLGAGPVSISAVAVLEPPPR

[2] = target: T2, NE2 mutant 597AE (hepatitis E virus, UniProt P29326 394-603); experiment: as above
T2 construct: position counted on HEV ORF2
T2 chain: T1 chain with A205E, E210A

[3] = target: T3, NE2 mutant 598VE (hepatitis E virus, UniProt P29326 394-603); experiment: as above
T3 construct: position counted on HEV ORF2
T3 chain: T1 chain with V206E, E210A

[4] = target: T4, NE2 mutant 599AE (hepatitis E virus, UniProt P29326 394-603); experiment: as above
T4 construct: position counted on HEV ORF2
T4 chain: T1 chain with A207E, E210A

[5] = target: T5, NE2 mutant 601LH (hepatitis E virus, UniProt P29326 394-600); experiment: as above
T5 construct: position counted on HEV ORF2
T5 chain: T1 chain with L209H, E210A

[6] = target: T6, NE2 mutant 601LK (hepatitis E virus, UniProt P29326 394-600); experiment: as above
T6 construct: position counted on HEV ORF2
T6 chain: T1 chain with L209K, E210A

[7] = target: T7, NE2 mutant 600VE (hepatitis E virus, UniProt P29326 394-599); experiment: as above
T7 construct: position counted on HEV ORF2
T7 chain: T1 chain with V208E, E210A

[8] = target: T8, NE2 mutant 601LD (hepatitis E virus, UniProt P29326 394-600); experiment: as above
T8 construct: position counted on HEV ORF2
T8 chain: T1 chain with L209D, E210A

[9] = target: T9, polypeptide 239 (hepatitis E virus, UniProt P29326 368-603); experiment: Western blot
T9 sequence: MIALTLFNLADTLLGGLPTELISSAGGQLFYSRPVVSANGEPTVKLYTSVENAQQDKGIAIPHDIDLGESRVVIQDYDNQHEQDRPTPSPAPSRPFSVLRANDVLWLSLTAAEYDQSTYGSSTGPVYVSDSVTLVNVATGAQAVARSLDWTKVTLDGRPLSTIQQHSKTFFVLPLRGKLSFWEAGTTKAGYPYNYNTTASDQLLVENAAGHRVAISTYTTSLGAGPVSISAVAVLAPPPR

[10] = target: T10, NE2 mutant 601LQ (hepatitis E virus, UniProt P29326 394-600); experiment: WB
T10 construct: position counted on HEV ORF2
T10 chain: T1 chain with L209Q, E210A

Measured: binding result

B1: monoclonal antibody 16D7 (antibody, V domains shown)
VH: EVQLQQSGPELVKPGASVKMSCKASGYKFTSYVMHWVKQKPGQGLEWIGYINPSNDNIKYNEKFKGKAILTLDKSSSTAYMAFSSLTSEDSAVYYCATLTGVDYWGQGTTLTVSS
VL: DVVMTQTPLSLSVTIGQPASISCKSSQSLLYRNGKIYLNWLQQRPGQAPKHLMSQVSKLDPGIPDRFSGSGSETDFTLKISRVEAEDLGVYYCLQGTHYPYTFGGGTKLEIKR
notes: also called MAb 16D7; HRP-16D7
binds: all assays above
